Results: patent US20170152300A1 (CSL, published 2017)
Values joined by “and” are separate entries in the source; they are usually repeats but may differ in a detail not shown here. Equal values may be shown once.

T1: recombinant Factor VIII (as described in Zollner et al 2013) (Homo sapiens (Human), UniProt P00451 20-2351)
T1 construct: also called FVIII
T1 sequence: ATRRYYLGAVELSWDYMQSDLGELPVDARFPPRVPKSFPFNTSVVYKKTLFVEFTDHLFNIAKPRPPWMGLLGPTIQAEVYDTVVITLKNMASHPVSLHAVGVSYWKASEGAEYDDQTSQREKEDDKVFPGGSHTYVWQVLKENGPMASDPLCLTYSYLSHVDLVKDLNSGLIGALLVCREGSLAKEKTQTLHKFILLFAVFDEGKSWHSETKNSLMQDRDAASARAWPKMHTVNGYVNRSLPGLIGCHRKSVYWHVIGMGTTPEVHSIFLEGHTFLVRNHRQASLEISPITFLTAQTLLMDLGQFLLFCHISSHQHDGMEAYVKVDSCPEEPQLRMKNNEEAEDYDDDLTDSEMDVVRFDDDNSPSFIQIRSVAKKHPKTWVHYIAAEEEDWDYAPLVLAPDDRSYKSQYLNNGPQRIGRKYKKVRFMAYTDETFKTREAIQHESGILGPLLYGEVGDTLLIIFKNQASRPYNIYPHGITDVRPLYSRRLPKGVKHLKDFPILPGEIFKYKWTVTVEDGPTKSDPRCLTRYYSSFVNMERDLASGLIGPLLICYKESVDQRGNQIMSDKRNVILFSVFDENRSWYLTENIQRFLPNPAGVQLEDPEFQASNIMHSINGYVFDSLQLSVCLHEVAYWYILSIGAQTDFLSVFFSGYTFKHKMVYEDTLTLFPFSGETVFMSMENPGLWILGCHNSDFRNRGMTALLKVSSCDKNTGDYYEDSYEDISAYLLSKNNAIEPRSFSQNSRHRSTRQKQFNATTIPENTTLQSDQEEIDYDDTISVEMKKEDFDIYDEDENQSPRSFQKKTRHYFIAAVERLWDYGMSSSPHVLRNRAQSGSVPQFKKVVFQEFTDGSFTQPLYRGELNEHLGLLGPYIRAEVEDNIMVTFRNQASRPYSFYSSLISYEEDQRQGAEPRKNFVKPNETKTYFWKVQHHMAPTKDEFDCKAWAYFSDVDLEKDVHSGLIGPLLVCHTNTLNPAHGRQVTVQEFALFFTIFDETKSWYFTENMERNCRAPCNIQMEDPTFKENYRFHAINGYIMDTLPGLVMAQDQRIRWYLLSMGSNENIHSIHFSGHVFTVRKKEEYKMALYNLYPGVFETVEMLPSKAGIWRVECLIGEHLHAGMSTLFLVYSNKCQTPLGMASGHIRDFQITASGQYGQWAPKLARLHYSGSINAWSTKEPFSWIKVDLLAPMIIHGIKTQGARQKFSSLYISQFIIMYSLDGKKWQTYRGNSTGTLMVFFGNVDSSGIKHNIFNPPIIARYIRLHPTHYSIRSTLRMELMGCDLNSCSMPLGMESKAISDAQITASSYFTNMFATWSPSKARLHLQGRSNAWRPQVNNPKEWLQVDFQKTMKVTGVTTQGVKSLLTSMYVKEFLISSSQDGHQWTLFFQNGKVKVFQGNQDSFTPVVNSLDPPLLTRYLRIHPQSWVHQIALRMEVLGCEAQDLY

B1: Hu-vWF[764-1270]-8His S764P-S766I (other)
chain: PLICRPPMVKLVCPADNLRAEGLECTKTCQNYDLECMSMGCVSGCLCPPGMVRHENRCVALERCPCFHQGKEYAPGETVKIGCNTCVCRDRKWNCTDHVCDATCSTIGMAHYLTFDGLKYLFPGECQYVLVQDYCGSNPGTFRILVGNKGCSHPSVKCKKRVTILVEGGEIELFDGEVNVKRPMKDETHFEVVESGRYIILLLGKALSVVWDRHLSISVVLKQTYQEKVCGLCGNFDGIQNNDLTSSNLQVEEDPVDFGNSWKVSSQCADTRKVPLDSSPATCHNNIMKQTMVDSSCRILTSDVFQDCNKLVDPEPYLDVCIYDTCSCESIGDCACFCDTIAAYAHVCAQHGKVVTWRTATLCPQSCEERNLRENGYECEWRYNSCAPACQVTCQHPEPLACPVQCVEGCHAHCPPGKILDELLQTCVDPEDCPVCEVAGRRFASGKKVTLNPSDPEHCQICHCDVVNLTCEACQEPGGLVVPPTDAPVSPTTLYVEDISEPPLHDFHHHHHHHH

Columns and labels:
[1] = molecular target: recombinant Factor VIII (as described in Zollner et al 2013) (Homo sapiens (Human)) (UniProt P00451); test: SPR, anti-His capture
[2] = molecular target: T1, recombinant Factor VIII (as described …); test: SPR, anti-His capture
Method: Binding kinetics were investigated by surface plasmon resonance using a Biacore 4000 biosensor at 37° C. Each mutant was captured from cell culture medium to a density of 40-150RU on a CM-5 sensor chip pre-immobilised with anti-His antibody (14,000 RU). In an initial screening study, FVIII was injected over the captured mutants for 5 minutes at 1 nM and dissociation monitored for 5 minutes.
All sensorgrams were double referenced by subtraction of signals from a reference spot (containing only immobilised anti His antibody) and from a blank injection. Binding kinetics were determined by fitting the double referenced sensorgrams to a 1:1 kinetic model.

| Molecule | Kd [1] | koff [1] | kon [1] | fold decrease in off-rate vs wild type [2] [fold] | fold increase in affinity vs wild type [2] [fold] |
| --- | --- | --- | --- | --- | --- |
| Hu-vWF[764-1270]-8His dupS764/S764P/S766I | 0.255 nM and 0.199 nM | 0.00159 s⁻¹ and 0.0025 s⁻¹ | 6.23e+06 M⁻¹ s⁻¹ and 1.25e+07 M⁻¹ s⁻¹ |  |  |
| B1 |  |  |  | 22 | 30 |
